Patent publication US20180155426A1 (SANFORD BURNHAM PREBYS MEDICAL DISCOVERY INSTITUTE, published 2018)

Experiments:
[1] = target: T1, huBTLA:huIgG recombinant fusion protein (human, UniProt Q7Z6A9 31-157, limits assumed); test: ELISA screen against huBTLA:huIgG (with purified huIgG as counter-screen)
T1 construct: Produced in 293T cells; Used as the immunogen and as the ELISA screening antigen; not shown: human IgG portion
T1 sequence (looked up): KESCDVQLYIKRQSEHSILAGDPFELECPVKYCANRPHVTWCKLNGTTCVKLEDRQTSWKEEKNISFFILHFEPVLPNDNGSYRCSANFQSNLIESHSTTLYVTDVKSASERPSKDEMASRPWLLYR

[2] = target: T2, human BTLA expressed on cells (human, UniProt Q7Z6A9 31-289); test: flow cytometry on MEF cells expressing huBTLA compared to non-BTLA expressing parental cells
T2 construct: whole, on cells; also called huBTLA; B and T lymphocyte attenuator
Description: The resulting hybridoma clones were screened by ELISA against huBTLA:huIgG and purified huIgG to identify those specific for huBTLA. A secondary screen was performed by binding to Beg+/+MEF cells expressing huBTLA and analyzing by flow cytometry compared to the non-BTLA expressing parental cells.

binding result [1]: binds
binding result [2]: binds
B1: anti-human BTLA monoclonal antibody clone 6F4 (antibody, V domains shown)
VH: EVQILETGGGLVKPGGSLRLSCATSGFNFNDYFVNWVRQAPGKGLQWVAQIRNKNYNPATYYAESLEGRVTISRDDSKSSVYLQVSSVRAEDTAIYYCSPISSYYHDGSLHYSDYWGQGVMVTVSS
VL: DIQMTQSPSVLSVSVGDRVTLNCKASHNIKNYLNWYQQKLGEAPKLLIYDTVNLQTGIPSRFSGSGSGTDFTVTISSLQPEDVATYFCFQYHSWPYTFGAGTKLELKR
notes: also called rat anti-hBLTA Mab Clone 6F4; Anti BTLA 6F4
